Experimental findings from patent US20230218735A1 (Pfizer, published 2023) are described below.

For test [1], the target named is T1, genetically modified and chemically inactivated C. difficile toxoid A (Clostridium difficile, UniProt P16154 2-2710).
T1 construct: also called TxdA; the toxoid
The experiment in a line: ITC. (In ITC the heat of successive injections is recorded.)

In test [2] the target is C. difficile toxin A (Clostridium difficile, UniProt P16154 1-2710). The experiment in a line: cell-based or functional assay.

B1: hCDIFA-46 (antibody, V domains shown)
VH: EVQLVESGGGLVQPGGSLRLSCAASGFTVSRNYMTWVRQAPGKGLEWVSVIYSGGSTYHADSVKGRFTISRDNSKNTLNLQMSSLRAEDTAVYYCARPCPGSSISCDYNMDVWGQGTTVTVSS
VL: QAVVTQPASVSGSPGQSITISCTGTSSDVGGYNYVSWYQQHPGKAPKLIIYEVSNRPSGVSNRFSGSKSGNTASLTISGLQAEDEADYYCTSYTSSSMIDVFGTGTKLTVLG
What is called Kd is the constant that tells how readily two partners part at equilibrium. High values mean weaker binding, low ones tighter binding. In the case of B1, in test [1], the “DH” value was -11.3 kcal/mol, binding was characterised by a dissociation constant (Kd) of 3 nM and the Stoichiometry came out at 1. Besides, the “EC50 TcdA [RLU], toxin neutralization assay (TNA) on IMR90 cells” value (from here on “EC50 TcdA [RLU]”) in test [2] stood at 1490 RLU.

B2: hCDIFA-24 (antibody, V domains shown)
VH: QVQLVQSGGGVVQPGRSLRLSCAASGFSFSTHGMHWVRQAPGKGLEWVAVISYDGSNKYYADSVKGRFTISRDNSKNTVYLQMNSLRAEDTAVFYCAKPRDNYYYYGMDVWGQGTTVTVSS
VL: AIRMTQSPSSLSASTGNRVTITCRASQGISSYLAWYQQKPGKAPNLLIYAASTLQSGVPSRFTGSGSGTDFTLTISRLHSENFATYYCQQYFNYPRTFGQGTRLEIKR
Consider B2, for which, in test [1], the “DH” value is -11.2 kcal/mol, binding was characterised by a dissociation constant (Kd) of 6 nM and the Stoichiometry was found to be 1.07. Besides, the “EC50 TcdA [RLU]” value in test [2] turned out to be 6300 RLU.

B3: hCDIFA-32 (antibody, V domains shown)
VH: QVQLQESGPGLVKPSETLSLTCTVSGGSISSHYWSWIRQTPGKGLEYIGNIYYTGRTKYNPSLKSRVTISADMSKNQVSLKLNSVTAADTAVYYCARGGPLMDVWGQGTTVTVSS
VL: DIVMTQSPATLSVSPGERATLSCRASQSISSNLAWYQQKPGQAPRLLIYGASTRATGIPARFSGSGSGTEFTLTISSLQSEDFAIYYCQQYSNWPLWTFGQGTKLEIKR
Consider B3, for which, in test [1], the “DH” value was -12 kcal/mol, binding was put at a Kd of 21 nM and the Stoichiometry turned out to be 0.21. The “EC50 TcdA [RLU]” value in test [2] is 306 RLU.

B4: hCDIFA-15 (antibody, V domains shown)
VH: QVQLVQSGAEVKKPGASVKISCKASGYTFVRYYMHWVRQAPGQGLEWMGLIDPSGGSTRYAQRFQGRVTMTRDTSTSTVYMELSGLRSEDTAVYYCARDGPFGGLSGGNWFDPWGQGTLVTVSS
VL: AIRMTQSPGTLSLSPGERATLSCRASQSLSFSYLAWYQQKPGQAPRLLIYGASSRATGIPDRFSGSGSGTDFALTISRLEPEDFAVYYCQQYGTSPLTFGGGTKVDIKR
B4: in test [1], the “DH” value is -2.7 kcal/mol, binding was put at a Kd of 38 nM and the Stoichiometry came to 1.68. Besides, the “EC50 TcdA [RLU]” value in test [2] was around 147 RLU.

B5: hCDIFA-8 (antibody, V domains shown)
VH: QVQLVESGGGLVKPGGSLRLSCAASGFTFSTSSMNWVRQAPGKGLEWVSSINTSGDYIYYTDSVKGRFTISRDNAKNSLYLQMNSLRAEDTAVYYCARDLGTWRDYWGQGTLVTVSS
VL: QSVLTQPASVSGSPGQSITISCTGTSSDVGSYNLVSWYHQHPGKAPKLIIYEVSKRPSGVSNRFSGSKSGNTASLTISGLQAEDEADYYCYSYAGSSAFAWVFGTGTKLTVLG
On to B5, for which, in test [1], the “DH” value is -6.9 kcal/mol, the dissociation constant (Kd) is 20 nM and the Stoichiometry stood at 2.02. Also, in test [2], the “EC50 TcdA [RLU]” value was 35400 RLU.

B6: hCDIFA-7 (antibody, V domains shown)
VH: QVQLRESGPGLVKPSETLSLTCTVSGGSVSNYYWSWIRQPPGKGLEWIGYIYSSGTINFNPSLKGRVTISGDTSKNQFSLKLSSVTAADTAVYYCARSGKWALGAFDIWGQGTMVTVSS
VL: QSALTQPPSVSGAPGQRVTISCTGSSSNIGTGYDVHWYQQLPGKVPKLLIHGNGDRPSGVPDRFSASKSGTSASLAITGLQSEDEGDYYCQSYDNSLSGLVVFGGGTKLTVLG
In the case of B6, in test [1], the “DH” value is -13.5 kcal/mol, the dissociation constant Kd stood at 118 nM and the Stoichiometry amounted to 2.94. Also, in test [2], the “EC50 TcdA [RLU]” value is 13300 RLU.

B7: hCDIFA-11 (antibody, V domains shown)
VH: QVQLVQSATEMKKPGASVKVSCKASGYTFSDSYMHWVRQAPGQGLEWMGWINPDSGGTNYAQKFKGWVTMTRDTSINTVYMELRRLRSDDTAVYYCARDGGDYARHSLDYWGQGTLVTVSS
VL: DVVMTQSPGTLSLSPGERVTLSCRASQSVNSDYLVWYQQKPGQAPRLLIYGASSRATGIPDRFSGSGSGPDFTLTISRLEPEDVAVYYCQLYGGLFTFGQGTRLEIKR
As to B7, in test [1], the “DH” value was -17.9 kcal/mol, the Kd amounted to 4 nM and the Stoichiometry is 0.97. Further, in test [2], the “EC50 TcdA [RLU]” value turned out to be 60 RLU.

B8: hCDIFA-35 (antibody, V domains shown)
VH: EVQLVQSGGGVVQPGRSLKLSCAASGFSFSSHGMHWVRQAPGKGLEWVALISYDGSYKYYEDSVKGRFTISRDNSKNTLYLQMNSLRAEDTAVYYCAKDWERYCSGMSCYLRNSLDYWGQGTLVTVSS
VL: QSALTQPPSVSVAPGKTAGITCGGPNIGSKSVHWYQRKPGQAPVLVVYDDRYRPSGIPERFSGSNSGNTATLSISRVEAGDEADYYCQVWDSRSDHVVFGGGTKLTVLG
In the case of B8, in test [1], the “DH” value is -16.6 kcal/mol, the equilibrium dissociation constant (Kd) was 8 nM and the Stoichiometry was 1.04. Moreover, in test [2], the “EC50 TcdA [RLU]” value was around 52 RLU.

B9: hCDIFA-45 (antibody, V domains shown)
VH: QVQLVQSGPEVRKPGTSVKFSCKASGFTFTSAAMQWVRQARGQRLEWIGWIVVDSGNTNYAQKFQERVTITRDMSTSTVYMELSSLRSEDTAMYYCAASRGIVGTRGLFDSWGQGTLVTVSS
VL: EIVLTQSPSSLSSSVGDRVTITCRASQSIRNYLNWYQQKPGKAPKLLIYGASSLQSGVPPRFSGSGFGTDFTLTISNLQPEDFASYSCQQTYSTPLTFGGGTKLEIKR
Regarding B9, in test [1], the “DH” value was -17.6 kcal/mol, the Kd was determined as 0.3 nM and the Stoichiometry was determined as 0.98. In test [2], the “EC50 TcdA [RLU]” value was 1490 RLU.

B10: hCDIFA-56 (antibody, V domains shown)
VH: QVQLVQSGAEVKKPGASVKVSCKVSGYTLPELSMHWVRQAPGKGLEWMGGFDPEDDDTIYAQKFQGRVTMTEDTSTDTAYLELSSLRSEDTAVYYCATDSSPLYNENYFGSAAFDVWGQGTTVTVSS
VL: AIRMTQSPSSLSASVGDRVTITCRASQGISTYLAWYQQKPGKAPKLLLYAASRLESGVPSRFSGSGSGTDYTLTINSLQPEDFATYYCQQYDRMPRTFGQGTKVEIKR
For the molecule B10, in test [1], the “DH” value was -10.3 kcal/mol; the affinity, expressed as Kd, was 5 nM; the Stoichiometry turned out to be 0.78. In addition, the “EC50 TcdA [RLU]” value in test [2] is 111000 RLU.

B11: hCDIFA-37 (antibody, V domains shown)
VH: QVQLLESGPGLVKTSGTLSLTCSVSGDSVSTNNWWTWVRQPPGKGLEWIGEIYYNGNTIYNPSFKSRVTISVNRSKNHFSLKLNSVTAADRAVYYCARRTWNDVGPFDYWGQGILVTVSS
VL: DIVMTQSPSSLSASIGDRVIITCRASQNINRYLNWYQQTAGKAPKLLIYGTSNLQSGVPSRFSGSGSGSGTDFTLTISSLQPEDFATYYCHQSYRTPQTFGQGTKLEIKR
Consider B11, for which, in test [1], the “DH” value is -7.9 kcal/mol, binding was put at a Kd of 7 nM and the Stoichiometry was 0.95. In test [2], the “EC50 TcdA [RLU]” value is 37100 RLU.
